Changes are numbered by the printed parent chain.
T1: LIN7B, Q9HAP6
T1 sequence (Q9HAP6 88-185, limits assumed, looked up): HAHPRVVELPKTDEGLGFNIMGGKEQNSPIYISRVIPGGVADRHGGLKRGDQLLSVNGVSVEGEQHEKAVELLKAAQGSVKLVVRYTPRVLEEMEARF

T2: ARHGAP21, Q5T5U3
T2 sequence (Q5T5U3 45-169, limits assumed, looked up): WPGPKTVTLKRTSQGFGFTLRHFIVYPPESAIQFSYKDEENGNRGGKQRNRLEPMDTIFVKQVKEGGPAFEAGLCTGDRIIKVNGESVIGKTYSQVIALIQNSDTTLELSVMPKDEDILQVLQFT

T3: MPP7, Q5T2T1
T3 sequence (Q5T2T1 134-230, limits assumed, looked up): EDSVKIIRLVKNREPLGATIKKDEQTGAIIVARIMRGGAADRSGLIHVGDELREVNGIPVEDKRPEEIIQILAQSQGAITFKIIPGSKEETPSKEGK

T4: PDZRN3_1, Q9UPQ7
T4 sequence (Q9UPQ7 244-349, limits assumed, looked up): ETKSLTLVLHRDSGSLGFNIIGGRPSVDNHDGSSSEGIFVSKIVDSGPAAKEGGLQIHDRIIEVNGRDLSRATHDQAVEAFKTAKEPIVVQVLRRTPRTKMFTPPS

T5: LIN7C, Q9NUP9
T5 sequence (Q9NUP9 88-185, limits assumed, looked up): T1 sequence (Q9HAP6 88-185, limits assumed, looked up) with A2S, D13E, V35I, V40I, Q65H, S79K, R89K, A96S

T6: HTRA3, P83110
T6 sequence (P83110 354-453, limits assumed, looked up): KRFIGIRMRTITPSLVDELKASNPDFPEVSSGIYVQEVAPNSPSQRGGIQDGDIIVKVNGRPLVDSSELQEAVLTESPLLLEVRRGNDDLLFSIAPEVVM

T7: GRIP1_3, Q9Y3R0
T7 sequence (Q9Y3R0 247-346, limits assumed, looked up): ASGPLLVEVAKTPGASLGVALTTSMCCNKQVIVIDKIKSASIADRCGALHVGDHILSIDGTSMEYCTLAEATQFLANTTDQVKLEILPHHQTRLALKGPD

T8: APBA1_1, Q02410
T8 sequence (Q02410 651-752, limits assumed, looked up): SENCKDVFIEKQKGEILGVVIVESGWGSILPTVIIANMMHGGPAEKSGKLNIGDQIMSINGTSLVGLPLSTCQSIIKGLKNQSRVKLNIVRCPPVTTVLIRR

T9: DFNB31_2, Q9P202
T9 sequence (Q9P202 274-371, limits assumed, looked up): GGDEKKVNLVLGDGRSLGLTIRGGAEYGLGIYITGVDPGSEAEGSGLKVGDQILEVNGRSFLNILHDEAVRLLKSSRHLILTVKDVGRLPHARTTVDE

T10: GRIP1_4, Q9Y3R0
T10 sequence (Q9Y3R0 467-571, limits assumed, looked up): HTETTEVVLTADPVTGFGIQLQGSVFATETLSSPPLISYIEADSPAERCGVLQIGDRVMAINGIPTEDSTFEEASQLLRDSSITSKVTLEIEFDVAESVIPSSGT

T11: DLG3_2, Q92796
T11 sequence (Q92796 221-321, limits assumed, looked up): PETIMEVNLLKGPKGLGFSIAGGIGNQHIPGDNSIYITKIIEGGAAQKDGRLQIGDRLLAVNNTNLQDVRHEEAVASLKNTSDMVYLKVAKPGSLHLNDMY

B1: BPIFA2, Q96DR5 (peptide)
chain: QHKTQLQTLI
B2: ERBB2, P04626 (peptide)
chain: PEYLGLDVPV
B3: ABCA7, Q8IZY2 (peptide)
chain: DDPSTAETVL

Each binder was assayed against T1, LIN7B, Q9HAP6 (assay: holdup assay). Settings: plain residues with an end cap or a label only (N-terminal biotin on a linker: ado-ado).
Set-up: key: below the threshold = too weak to quantify, mostly under pKd 3.1 to 4

pKd | Binder
below the threshold | B1
below the threshold | B2
3.89 | B3

What follows are binders tested against T2, ARHGAP21, Q5T5U3 (assay: holdup assay). Settings: plain residues with an end cap or a label only (N-terminal biotin on a linker: ado-ado).
Set-up: key: below the threshold = too weak to quantify, mostly under pKd 3.1 to 4

pKd | Binder
4.01 | B1
4.12 | B2
3.8 | B3

Each binder was assayed against GIPC2, Q8TF65 (assay: holdup assay). Settings: plain residues with an end cap or a label only (N-terminal biotin on a linker: ado-ado).
Set-up: key: below the threshold = too weak to quantify, mostly under pKd 3.1 to 4

Chain of GIPC2, Q8TF65 (Q8TF65 112-203): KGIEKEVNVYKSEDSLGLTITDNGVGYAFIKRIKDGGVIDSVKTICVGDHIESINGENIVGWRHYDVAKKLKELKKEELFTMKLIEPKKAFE

pKd | Binder
3.49 | B1
below the threshold | B2
below the threshold | B3

These binders were tested against T3, MPP7, Q5T2T1 (assay: holdup assay). Settings: plain residues with an end cap or a label only (N-terminal biotin on a linker: ado-ado).
Set-up: key: below the threshold = too weak to quantify, mostly under pKd 3.1 to 4

pKd | Binder
below the threshold | B1
below the threshold | B2
below the threshold | B3

Each binder was assayed against T4, PDZRN3_1, Q9UPQ7 (assay: holdup assay). Settings: plain residues with an end cap or a label only (N-terminal biotin on a linker: ado-ado).
Set-up: key: below the threshold = too weak to quantify, mostly under pKd 3.1 to 4

pKd | Binder
3.65 | B1
3.48 | B2
4.09 | B3

What follows are binders tested against LNX1_1, Q8TBB1 (assay: holdup assay). Settings: plain residues with an end cap or a label only (N-terminal biotin on a linker: ado-ado).
Set-up: key: below the threshold = too weak to quantify, mostly under pKd 3.1 to 4

Chain of LNX1_1, Q8TBB1 (Q8TBB1 261-371): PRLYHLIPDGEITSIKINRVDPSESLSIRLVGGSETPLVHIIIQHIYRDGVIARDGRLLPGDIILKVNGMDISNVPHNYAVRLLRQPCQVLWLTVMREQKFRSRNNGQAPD

pKd | Binder
4.27 | B1
3.58 | B2
below the threshold | B3

Each binder was assayed against T5, LIN7C, Q9NUP9 (assay: holdup assay). Settings: plain residues with an end cap or a label only (N-terminal biotin on a linker: ado-ado).
Set-up: key: below the threshold = too weak to quantify, mostly under pKd 3.1 to 4

pKd | Binder
below the threshold | B1
below the threshold | B2
below the threshold | B3

Each binder was assayed against DLG4_1, P78352 (assay: holdup assay). Settings: plain residues with an end cap or a label only (N-terminal biotin on a linker: ado-ado).
Set-up: key: below the threshold = too weak to quantify, mostly under pKd 3.1 to 4

Chain of DLG4_1, P78352 (P78352 62-152): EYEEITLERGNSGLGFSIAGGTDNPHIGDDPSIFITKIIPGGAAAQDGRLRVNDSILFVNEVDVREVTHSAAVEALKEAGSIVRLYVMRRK

pKd | Binder
4.38 | B1
below the threshold | B2
below the threshold | B3

Each binder was assayed against GRIP2_5, Q9C0E4 (assay: holdup assay). Settings: plain residues with an end cap or a label only (N-terminal biotin on a linker: ado-ado).
Set-up: key: below the threshold = too weak to quantify, mostly under pKd 3.1 to 4

Chain of GRIP2_5, Q9C0E4 (Q9C0E4 544-642): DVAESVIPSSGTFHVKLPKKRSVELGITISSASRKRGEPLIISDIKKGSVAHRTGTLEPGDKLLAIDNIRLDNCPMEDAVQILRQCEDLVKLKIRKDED

pKd | Binder
below the threshold | B1
below the threshold | B2
below the threshold | B3

Each binder was assayed against MAGI2_4, Q86UL8 (assay: holdup assay). Settings: plain residues with an end cap or a label only (N-terminal biotin on a linker: ado-ado).
Set-up: key: below the threshold = too weak to quantify, mostly under pKd 3.1 to 4

Chain of MAGI2_4, Q86UL8 (Q86UL8 772-865): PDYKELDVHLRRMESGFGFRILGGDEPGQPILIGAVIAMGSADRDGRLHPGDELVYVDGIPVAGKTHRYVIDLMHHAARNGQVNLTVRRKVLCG

pKd | Binder
4.05 | B1
below the threshold | B2
below the threshold | B3

What follows are binders tested against GRID2IP_1, A4D2P6 (assay: holdup assay). Settings: plain residues with an end cap or a label only (N-terminal biotin on a linker: ado-ado).
Set-up: key: below the threshold = too weak to quantify, mostly under pKd 3.1 to 4

Chain of GRID2IP_1, A4D2P6 (A4D2P6 1-87): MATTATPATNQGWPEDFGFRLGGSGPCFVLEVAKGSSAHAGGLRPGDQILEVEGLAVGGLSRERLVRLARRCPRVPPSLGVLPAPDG

pKd | Binder
below the threshold | B1
below the threshold | B2
below the threshold | B3

These binders were tested against Inadl_2, Q8NI35 (assay: holdup assay). Settings: plain residues with an end cap or a label only (N-terminal biotin on a linker: ado-ado).
Set-up: key: below the threshold = too weak to quantify, mostly under pKd 3.1 to 4

Chain of Inadl_2, Q8NI35 (Q8NI35 238-335): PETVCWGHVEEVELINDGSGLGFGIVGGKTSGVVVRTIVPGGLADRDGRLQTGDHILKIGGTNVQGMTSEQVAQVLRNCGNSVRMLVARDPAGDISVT

pKd | Binder
below the threshold | B1
below the threshold | B2
below the threshold | B3

The binders below were run against CASK, O14936 (assay: holdup assay). Settings: plain residues with an end cap or a label only (N-terminal biotin on a linker: ado-ado).
Set-up: key: below the threshold = too weak to quantify, mostly under pKd 3.1 to 4

Chain of CASK, O14936 (O14936 487-570): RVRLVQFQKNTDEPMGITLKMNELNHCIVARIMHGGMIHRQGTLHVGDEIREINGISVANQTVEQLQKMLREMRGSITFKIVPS

pKd | Binder
below the threshold | B1
below the threshold | B2
below the threshold | B3

The binders below were run against GORASP1, Q9BQQ3 (assay: holdup assay). Settings: plain residues with an end cap or a label only (N-terminal biotin on a linker: ado-ado).
Set-up: key: below the threshold = too weak to quantify, mostly under pKd 3.1 to 4

Chain of GORASP1, Q9BQQ3 (Q9BQQ3 1-208): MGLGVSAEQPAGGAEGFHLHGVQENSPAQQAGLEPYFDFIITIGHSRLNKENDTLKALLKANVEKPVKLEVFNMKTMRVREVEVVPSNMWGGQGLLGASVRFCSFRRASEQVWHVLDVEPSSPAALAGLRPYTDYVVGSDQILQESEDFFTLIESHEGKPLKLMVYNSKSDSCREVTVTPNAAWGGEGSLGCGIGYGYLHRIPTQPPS

pKd | Binder
3.73 | B1
below the threshold | B2
below the threshold | B3

Each binder was assayed against GORASP2, Q9H8Y8 (assay: holdup assay). Settings: plain residues with an end cap or a label only (N-terminal biotin on a linker: ado-ado).
Set-up: key: below the threshold = too weak to quantify, mostly under pKd 3.1 to 4

pKd | Binder
3.77 | B1
below the threshold | B2
below the threshold | B3

These binders were tested against T6, HTRA3, P83110 (assay: holdup assay). Settings: plain residues with an end cap or a label only (N-terminal biotin on a linker: ado-ado).
Set-up: key: below the threshold = too weak to quantify, mostly under pKd 3.1 to 4

pKd | Binder
below the threshold | B1
below the threshold | B2
below the threshold | B3

Each binder was assayed against MAGI2_3, Q86UL8 (assay: holdup assay). Settings: plain residues with an end cap or a label only (N-terminal biotin on a linker: ado-ado).
Set-up: key: below the threshold = too weak to quantify, mostly under pKd 3.1 to 4

Chain of MAGI2_3, Q86UL8 (Q86UL8 600-682): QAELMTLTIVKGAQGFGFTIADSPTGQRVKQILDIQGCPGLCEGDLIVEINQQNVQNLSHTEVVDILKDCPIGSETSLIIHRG

pKd | Binder
below the threshold | B1
3.5 | B2
3.71 | B3

What follows are binders tested against FRMPD3, Q5JV73 (assay: holdup assay). Settings: plain residues with an end cap or a label only (N-terminal biotin on a linker: ado-ado).
Set-up: key: below the threshold = too weak to quantify, mostly under pKd 3.1 to 4

Chain of FRMPD3, Q5JV73 (Q5JV73 12-100): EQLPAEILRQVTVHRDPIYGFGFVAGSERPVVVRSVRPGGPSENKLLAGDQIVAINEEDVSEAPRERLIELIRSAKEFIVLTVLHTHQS

pKd | Binder
below the threshold | B1
3.78 | B2
below the threshold | B3

Each binder was assayed against FRMPD4, Q14CM0 (assay: holdup assay). Settings: plain residues with an end cap or a label only (N-terminal biotin on a linker: ado-ado).
Set-up: key: below the threshold = too weak to quantify, mostly under pKd 3.1 to 4

Chain of FRMPD4, Q14CM0 (Q14CM0 67-160): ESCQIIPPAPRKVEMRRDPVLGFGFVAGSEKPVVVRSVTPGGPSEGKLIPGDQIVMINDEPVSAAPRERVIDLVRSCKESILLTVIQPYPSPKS

pKd | Binder
below the threshold | B1
4.39 | B2
4.1 | B3

What follows are binders tested against T7, GRIP1_3, Q9Y3R0 (assay: holdup assay). Settings: plain residues with an end cap or a label only (N-terminal biotin on a linker: ado-ado).
Set-up: key: below the threshold = too weak to quantify, mostly under pKd 3.1 to 4

pKd | Binder
below the threshold | B1
below the threshold | B2
below the threshold | B3

What follows are binders tested against T8, APBA1_1, Q02410 (assay: holdup assay). Settings: plain residues with an end cap or a label only (N-terminal biotin on a linker: ado-ado).
Set-up: key: below the threshold = too weak to quantify, mostly under pKd 3.1 to 4

pKd | Binder
below the threshold | B1
below the threshold | B2
below the threshold | B3

Each binder was assayed against T9, DFNB31_2, Q9P202 (assay: holdup assay). Settings: plain residues with an end cap or a label only (N-terminal biotin on a linker: ado-ado).
Set-up: key: below the threshold = too weak to quantify, mostly under pKd 3.1 to 4

pKd | Binder
below the threshold | B1
below the threshold | B2
below the threshold | B3

The binders below were run against T10, GRIP1_4, Q9Y3R0 (assay: holdup assay). Settings: plain residues with an end cap or a label only (N-terminal biotin on a linker: ado-ado).
Set-up: key: below the threshold = too weak to quantify, mostly under pKd 3.1 to 4

pKd | Binder
below the threshold | B1
below the threshold | B2
below the threshold | B3

The binders below were run against T11, DLG3_2, Q92796 (assay: holdup assay). Settings: plain residues with an end cap or a label only (N-terminal biotin on a linker: ado-ado).
Set-up: key: below the threshold = too weak to quantify, mostly under pKd 3.1 to 4

pKd | Binder
4.08 | B1
3.53 | B2
4.37 | B3

The binders below were run against NHERF4_2, Q86UT5 (assay: holdup assay). Settings: plain residues with an end cap or a label only (N-terminal biotin on a linker: ado-ado).
Set-up: key: below the threshold = too weak to quantify, mostly under pKd 3.1 to 4

Chain of NHERF4_2, Q86UT5 (Q86UT5 220-308): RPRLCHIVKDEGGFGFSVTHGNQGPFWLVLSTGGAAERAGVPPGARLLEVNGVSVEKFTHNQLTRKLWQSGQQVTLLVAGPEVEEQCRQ

pKd | Binder
below the threshold | B1
below the threshold | B2
below the threshold | B3

From PMC9482650, “Quantitative fragmentomics allow affinity mapping of interactomes” (Nature Communications, 2022)
